Experimental findings from PMC10148139 are described below.

In general, Kd refers to the equilibrium constant for the complex coming apart. Low readings indicate tighter binding, high ones weaker binding.

The target in the test is MAGE D2 MAGE homology domain (MHD), amino acids 261–521 (human) (UniProt Q9UNF1). The experiment in a line: MST.
Sequence of UniProt Q9UNF1 (Q9UNF1 261-521): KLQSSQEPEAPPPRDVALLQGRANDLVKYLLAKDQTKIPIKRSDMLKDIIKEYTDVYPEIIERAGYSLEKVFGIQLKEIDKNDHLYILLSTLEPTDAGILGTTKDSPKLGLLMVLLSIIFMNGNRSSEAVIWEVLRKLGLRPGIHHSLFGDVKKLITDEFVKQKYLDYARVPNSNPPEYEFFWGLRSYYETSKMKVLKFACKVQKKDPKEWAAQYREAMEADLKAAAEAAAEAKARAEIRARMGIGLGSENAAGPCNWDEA

For the substance “Gαs AHD (amino acids 68–206), purified (from UniProt P63092-2 68-206) (domain or fragment)”, the Kd amounted to 155 nM.
